For experiment [1], the target named is T1, anti-PDL1 Fab (Fab of anti-PD-L1 antibody atezolizumab).
T1 construct: Fab format (Genentech); also called anti-PDL1 antibody Fab
The experiment can be described thus: SPR (BIAcore), anti-ID captured by anti-mouse-Fc on a CM5 chip, anti-PDL1 antibody Fab injected at 500 nM, 25 °C, 1:1 binding model. The protocol: (§1) Binding affinities of anti-PDL1 anti-ID antibodies were measured by Surface Plasmon Resonance (SPR) using a BIAcore™-[…] instrument. Anti-idiotypic antibodies were captured by an anti-mouse-Fc antibody coated on CM5 biosensor chips to achieve approximately 200 response units (RU). For kinetics measurements, 500 nM of anti-PDL1 Fab or framework control Fab (YW167B.43) (Genentech, South San Francisco, Calif.) were injected in HBS-P+ buffer (0.1M HEPES, 1.5M NaCl, 0.5% Surfactant P20—GE Life Science) at 25° C. with a flow rate of […]. Association rates (kₐ) and dissociation rates (kd) were calculated using a simple one-to-one Langmuir binding model (BIAcore Evaluation Software version 3.2). The equilibrium dissociation constant (KD) was calculated as the ratio koff/kₒₙ. See also FIG. 3-5.
(Surface plasmon resonance follows binding to a sensor surface in real time, without labels.)

Experiment [2] concerns the target T2, YW167B.43 Negative Control.
T2 construct: also called framework control Fab
The experiment can be described thus: SPR (BIAcore), anti-ID captured, YW167B.43 negative control Fab injected at 500 nM, 25 °C. The software prints this 1:1 fit under a flat sensorgram with no response. The protocol:
as §1

In experiment [3] the target is T3, atezolizumab (anti-PD-L1 antibody).
T3 construct: Full IgG/Ig kappa antibody as used in the IFE gel shift assays; also called anti-PDL1 antibody atezolizumab
The experiment can be described thus: immunofixation electrophoresis (Sebia IFE) gel shift, atezolizumab 1500 µg/mL in PBS pre-incubated 2 h with anti-ID antibody. A general note: In EMSA bound probe runs differently from free probe, usually more slowly.

The target of experiment [4] is T1, anti-PDL1 Fab (Fab of anti-PD-L1 …). The experiment can be described thus: SPR (BIAcore), anti-idiotypic antibody captured by anti-mouse-Fc on CM5 chip, 500 nM anti-PDL1 Fab injected, 25 C, 1:1 Langmuir model. The protocol: as §1
The target in experiment [5] is T2, YW167B.43 Negative Control. The experiment can be described thus: SPR (BIAcore), anti-ID captured, YW167B.43 negative control Fab injected at 500 nM, 25 °C. The software prints this 1:1 fit under a flat sensorgram with no positive response. On the procedure:
as §1

3 molecules from patent US20190338034A1 (Genentech, published 2019) can be followed below.

B1: anti-idiotypic anti-PD-L1 antibody 43B5 (antibody, mouse IgG2a, kappa, V domains shown)
VH: EVQLQQSGPELVKPGASVKISCKASGYSFTDYIMLWVKQSHGKSLEWIGNINPYYGSTSYNLKFKGKATLTVDKSSSTAYMQLNSLTSEDSAVYYCARWGGNYEGWFAYWGQGTLVTVSA
VL: DIKMTQSPSSMSVSLGDTVSITCHASQGISSNIGWLQQKPGKSFKGLIYHGTNLEDGVPSRFSGSGSGADYSLTISSLESEDFADYYCVQYAQFPLTFGAGTKLELKR
notes: Mouse monoclonal from a hybridoma
With B1, in experiment [1], the equilibrium dissociation constant (Kd) amounted to 89 nM, the koff is 0.00878 s⁻¹ and the association rate constant (kon) worked out at 98600 M⁻¹ s⁻¹. In experiment [2], this molecule yielded a Kd of 0.222 nM, a koff of 0.000128 s⁻¹ and an association rate constant (kon) of 574000 M⁻¹ s⁻¹. In experiment [3], the binding result is given as “binds”. Besides, in experiment [4], binding was put at a Kd of 90.7 nM, the koff worked out at 0.00862 s⁻¹ and the kon came to 95000 M⁻¹ s⁻¹.

B2: anti-idiotypic anti-PD-L1 antibody 105D11 (antibody, mouse IgG2a, kappa, V domains shown)
VH: EVQLVETGGGLVKPGGSLKLSCAASGFAFSSYDMSWVRQTPEKRLEWVAYISSGGGSTYYPDTVKGRFTISRDNAKNTLYLQMSSLKSEDTAMYYCARLVYYDYDDAMDYWGQGTSVTVSS
VL: DIVLTQSPAIMSASPGEKVTITCSASSSVSYMHWFQQKPGTSPKLWIYSTSNLASGVPARFSGSGSGTSYSLTISRMEAEDAATYYCQQRSSYPPTFGGGTRLEIKR
notes: as for B1
In experiment [1], B2 had a dissociation constant (Kd) of 17.5 nM, a koff of 0.00648 s⁻¹ and an association rate constant (kon) of 370000 M⁻¹ s⁻¹. In experiment [2], this molecule showed a Kd of 31.7 nM, a dissociation rate constant (koff) of 1.66 s⁻¹ and a kon of 5.23e+07 M⁻¹ s⁻¹. Besides, the binding result in experiment [3] is listed as “binds”. Further, in experiment [4], the Kd turned out to be 16.5 nM, the off-rate constant (koff) amounted to 0.0045 s⁻¹ and the association rate constant (kon) was found to be 279000 M⁻¹ s⁻¹.

B3: anti-idiotypic anti-PD-L1 antibody 48C1 (antibody, mouse IgG2a, kappa, V domains shown)
VH: EVQLVESGGGLVKPGGSLKLSCAASGFAFSSYDMSWVRQTPEKRLEWVAYISSGGGSTYYPDTVKGRFTISRDNAKNTLYLQMSSLKSEDTAMYYCARTIYYGYDDVMDYWGQGTSVTVSS
VL: QIVLTQSPAIMSASPGEKVTITCSASSSVSYMHWFQQKPGTSPKLWIYSTSNLASGVPARFSGSGSGTSYSLTISRMEAEDAATYYCQQRSGYPPTFGGGTKLEIKR
notes: Mouse monoclonal from a hybridoma; also called atezolizumab anti-idiotypic mouse mAB clone 48C1; atezolizumab anti-ID antibody 48C1
In experiment [1], B3 had a dissociation constant Kd of 2.64 nM, an off-rate (koff) of 0.000949 s⁻¹ and a kon of 360000 M⁻¹ s⁻¹. Moreover, in experiment [3], the binding result is reported as “binds”. In experiment [4], the Kd came to 2.31 nM, the koff was 0.000977 s⁻¹ and the kon turned out to be 421000 M⁻¹ s⁻¹. Besides, in experiment [5], the equilibrium dissociation constant (Kd) is 127 nM, the koff turned out to be 0.000421 s⁻¹ and the on-rate constant (kon) came out at 3310 M⁻¹ s⁻¹.

As a reminder, the Kd is the concentration at which binding is half-saturated. A word on the koff: it is a measure of how fast the partners let go of each other. A lower koff goes with slow dissociation. For orientation: kon means a measure of how fast the partners come together.
